This assay deals with Dendritic cell-specific ICAM-3 grabbing non-integrin (DC-SIGN, CD209) (human) (UniProt Q9NNX6). Description: virion-cell binding assay.
UniProt Q9NNX6, sequence (Q9NNX6 whole entry): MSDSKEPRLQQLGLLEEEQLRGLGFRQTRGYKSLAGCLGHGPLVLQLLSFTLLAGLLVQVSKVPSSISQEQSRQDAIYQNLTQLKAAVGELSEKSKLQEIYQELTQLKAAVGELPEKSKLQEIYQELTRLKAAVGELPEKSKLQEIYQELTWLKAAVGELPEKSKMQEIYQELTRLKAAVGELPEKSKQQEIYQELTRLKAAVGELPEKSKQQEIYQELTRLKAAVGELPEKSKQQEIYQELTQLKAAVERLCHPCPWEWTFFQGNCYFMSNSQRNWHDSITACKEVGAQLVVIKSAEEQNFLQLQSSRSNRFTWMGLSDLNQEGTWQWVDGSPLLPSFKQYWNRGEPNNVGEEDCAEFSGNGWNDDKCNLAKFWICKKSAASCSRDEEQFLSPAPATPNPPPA

“EBOV Makona glycoprotein GP-V82 (natural protein)” returned a fold binding relative to GP-A82 of 2 fold.

(Values after article doi:10.1101/630269.)
